Biological target: 5c.c7 TCR on 5c.c7 αβ TCR-transgenic CD4+ T-cells (mouse)
Assay: flow cytometry on cells; time curve: T-cells labeled with AF555-H57-scFV (1800 ng per 1 Mio T-cells), washed, kept on ice, at room temperature or at 37 °C; samples taken after 0, 5, 10, 30, 60 and 120 min

time after which 50% of receptor:ligand bonds are still intact, room temperature: > 3 h
Substance: fluorescently labeled H57 scFV (J1), TCR β-reactive H57 single-chain fragment
